Kd data for 36 molecules are collected here from patent publication US20240327535A1 (EISAI R AND D MANAGEMENT, published 2024).

Holding throughout (assay): Octet BLI; Fab 200 nM
Experiment [1] concerns the target T1, extracellular domain of human BCMA (human, UniProt Q02223 1-54).
T1 construct: amine-linked to Octet AR2G tips; also called hsBCMA; BCMA (human)
T1 sequence: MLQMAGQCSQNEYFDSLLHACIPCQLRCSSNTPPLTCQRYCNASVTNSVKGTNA

The target in experiment [2] is T2, extracellular domain of rhesus monkey BCMA (rhesus monkey, UniProt F7FFA0 1-53).
T2 construct: extracellular domain; also called RhBCMA
T2 sequence (F7FFA0 entry or part of it): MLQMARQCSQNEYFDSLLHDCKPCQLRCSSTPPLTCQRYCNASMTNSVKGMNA

The target of experiment [3] is T1, extracellular domain of human BCMA. This is another data set of the same source.
Experiment [4] concerns the target T2, extracellular domain of rhesus monkey …. This is another data set of the same source.

Residue numbers refer to the chain shown, from its start. Like-named read-outs stand apart in the source and are kept apart here.

B1: AB200-R1a-Fab_Vk29 (Fab, V domains shown)
VH: QVQLVQSGAEVKKPGSSVKVSCKASGGTFSNYWMHWVRQAPGQGLEWMGATYRGHSDTYYNQKFKGRVTITADKSTSTAYMELSSLRSEDTAVYYCARGAIYHGYDVLDNWGQGTLVTVSS
VL: DIQMTQSPSSLSASVGDRVTITCSASHDVSNYLNWYQQKPGKAPKLLIYYTSNLHSGVPSRFSGSGSGTDFTLTISSLQPEDFATYYCQQYRRLPWTFGQGTKLEIKR
B1: the results for the Kd in experiment [1] and in experiment [2] were 1.55 nM and 4.96 nM, respectively.

B2: AB200-(2Vk31)_R2-CDR2-hs-v1 (Fab, V domains shown)
VH: QVQLVQSGAEVKKPGSSVKVSCKASGGTFTNYWIHWVRQAPGQGLEWMGGIIPIFGTANYAQKFQGRVTITADKSTSTAYMELSSLRSEDTAVYYCARGAIFHGYDVIDNWGQGTLVTVSS
VL: B1 VL with S24R, H27Q, D28S, V29I, N31S, Y50A, H55Q, S56I, Y91F
On to B2, for which the Kd came out at 241 nM in experiment [3] and 448 nM in experiment [4].

B3: AB200-(2Vk31)_R2-VH-v17 (Fab, V domains shown)
VH: B1 VH with T28S, M34I, G54S, H55Q, N61A, G66S, Y102F, L108I
VL: B1 VL with S24R, H27Q, D28S, V29I, N31S, Y50A, H55Q, S56I, Y91F
Regarding B3, the dissociation constant Kd in experiment [3] stood at 5.77 nM; in experiment [4], 16.9 nM.

B4: AB200-(2Vk31)_R2-VH-v5 (Fab, V domains shown)
VH: B1 VH with S30T, M34I, A50G, G54S, Q62E, G66S, Y102F, L108I
VL: B1 VL with S24R, H27Q, D28S, V29I, N31S, Y50A, H55Q, S56I, Y91F
As to B4, the Kd came to 3.65 nM in experiment [3] and 10.4 nM in experiment [4].

B5: AB200-(2Vk31)_R2-VH-v73 (Fab, V domains shown)
VH: B1 VH with M34I, G54I, N61A, F64Y, G66S, I101V, L108I
VL: B1 VL with S24R, H27Q, D28S, V29I, N31S, Y50A, H55Q, S56I, Y91F
On to B5, for which the Kd in experiment [3] was 1.32 nM; in experiment [4], 7.72 nM.

B6: AB200-R1a-Fab_Vk2 (Fab, V domains shown)
VH: B1 VH
VL: B1 VL with H27Q, D28E, Q90E, R93K
For B6, the Kd in experiment [1] was found to be 4.27 nM; in experiment [2] it was 14.9 nM.

B7: AB200-(2Vk31)_R2-VH-v21 (Fab, V domains shown)
VH: B1 VH with M34I, A50G, G54S, N61A, G66S, Y102F, L108I
VL: B1 VL with S24R, H27Q, D28S, V29I, N31S, Y50A, H55Q, S56I, Y91F
On to B7, for which the Kd in experiment [3] came out at 10.7 nM; in experiment [4] it was 29.7 nM.

B8: AB200-(2Vk31)_R2-VH-v47 (Fab, V domains shown)
VH: B1 VH with F29Y, M34I, G54I, D57T, Q62E, G66S, Y102F, L108I
VL: B1 VL with S24R, H27Q, D28S, V29I, N31S, Y50A, H55Q, S56I, Y91F
B8: the results for the Kd in experiment [3] and in experiment [4] were 17.7 nM and 15.9 nM, respectively.

B9: AB200-R1a-Fab_Vk33 (Fab, V domains shown)
VH: B1 VH
VL: B1 VL with H27Q, V29I, N31S, Y50F, Y91S, R93K
B9: the dissociation constant (Kd) worked out at 19.5 nM in experiment [1] and 37.4 nM in experiment [2].

B10: AB200-(2Vk31)_R2-VH-v42 (Fab, V domains shown)
VH: B1 VH with S30T, M34I, A50G, G54I, F64Y, G66S, Y102F, L108I
VL: B1 VL with S24R, H27Q, D28S, V29I, N31S, Y50A, H55Q, S56I, Y91F
For the molecule B10, the Kd turned out to be 4.33 nM in experiment [3] and 23.5 nM in experiment [4].

B11: AB200-(2Vk31)_R2-VH-v2 (Fab, V domains shown)
VH: B1 VH with S30T, M34I, G54S, D57T, Y59N, G66S, I101V, L108I
VL: B1 VL with S24R, H27Q, D28S, V29I, N31S, Y50A, H55Q, S56I, Y91F
For B11, the figures for the Kd in experiment [3] and in experiment [4] were 25 nM and 55.6 nM, respectively.

B12: AB200-R1a-Fab(hCDR3) (Fab, V domains shown)
VH: B1 VH
VL: B1 VL with H27Q, V29I, Y91S, R92Y, R93S, L94T
On to B12, for which the values for the Kd in experiment [1] and in experiment [2] were 82.8 nM and 113 nM, respectively.

B13: AB200-(2Vk31)_R2-VH-v12 (Fab, V domains shown)
VH: B1 VH with F29Y, M34I, G54S, D57T, F64Y, G66S, Y105F, L108I
VL: B1 VL with S24R, H27Q, D28S, V29I, N31S, Y50A, H55Q, S56I, Y91F
Turning to B13, the Kd was 13 nM in experiment [3] and 18.4 nM in experiment [4].

B14: AB200-(2Vk31)_R2-VH-v50 (Fab, V domains shown)
VH: B1 VH with F29Y, M34I, A50G, G54I, Y59N, G66S, L108I, D109E
VL: B1 VL with S24R, H27Q, D28S, V29I, N31S, Y50A, H55Q, S56I, Y91F
In the case of B14, the dissociation constant Kd was 90 nM in experiment [3] and 196 nM in experiment [4].

B15: AB200-R1a-Fab_Vk15 (Fab, V domains shown)
VH: B1 VH
VL: B1 VL with D28E, V29I, N53S, R93K
Regarding B15, the Kd was 2.93 nM in experiment [1] and 9.71 nM in experiment [2].

B16: AB200-R1a-Fab_Vk16 (Fab, V domains shown)
VH: B1 VH
VL: B1 VL with H27Q, V29I, S30T, Y50A, Q90E, R93K
With B16, the figures for the dissociation constant (Kd) in experiment [1] and in experiment [2] were 3.18 nM and 12.9 nM, respectively.

B17: AB200-R1a-Fab_Vk10 (Fab, V domains shown)
VH: B1 VH
VL: B1 VL with H27Q, D28S, V29I, Y91S, R93K, L94M
Take B17: the Kd worked out at 110 nM in experiment [1] and 195 nM in experiment [2].

B18: AB200-(2Vk31)_R2-VH-v66 (Fab, V domains shown)
VH: B1 VH with M34I, G54I, D57T, F64Y, G66S, Y102F, L108I
VL: B1 VL with S24R, H27Q, D28S, V29I, N31S, Y50A, H55Q, S56I, Y91F
Turning to B18, the Kd in experiment [3] is 13.7 nM; in experiment [4], 20.8 nM.

B19: AB200-R1a-Fab_Vk30 (Fab, V domains shown)
VH: B1 VH
VL: B1 VL with S24T, H27Q, D28S, V29I, L33I, R93K
On to B19, for which the results for the equilibrium dissociation constant (Kd) in experiment [1] and in experiment [2] were 1.56 nM and 4.78 nM, respectively.

B20: AB200-(2Vk31)_R2-VH-v33 (Fab, V domains shown)
VH: B1 VH with M34I, G54S, Y59N, Q62E, G66S, L108I, D109E
VL: B1 VL with S24R, H27Q, D28S, V29I, N31S, Y50A, H55Q, S56I, Y91F
Take B20: the Kd in experiment [3] amounted to 46 nM; in experiment [4] it was 50.4 nM.

B21: AB200-R1a-Fab_Vk32 (Fab, V domains shown)
VH: B1 VH
VL: B1 VL with H27Q, V29L, N53S, R93K, L94T
In the case of B21, the Kd in experiment [1] was found to be 11.7 nM; in experiment [2] it was 44.7 nM.

B22: AB200-R1a-Fab(hCDR1) (Fab, V domains shown)
VH: B1 VH
VL: B1 VL with S24R, H27Q, D28S, V29I, N31S, R93K
On to B22, for which the Kd was determined as 1.58 nM in experiment [1] and 5.3 nM in experiment [2].

B23: AB200-R1a-Fab_Vk36 (Fab, V domains shown)
VH: B1 VH
VL: B1 VL with H27Q, V29L, H55Q
As to B23, the Kd in experiment [1] is 1.43 nM; in experiment [2], 5.06 nM.

B24: AB200-(2Vk31)_R2-VH-v34 (Fab, V domains shown)
VH: B1 VH with M34I, G54S, H55Q, N61A, G66S, L108I, D109E
VL: B1 VL with S24R, H27Q, D28S, V29I, N31S, Y50A, H55Q, S56I, Y91F
In the case of B24, the figures for the Kd in experiment [3] and in experiment [4] were 5.13 nM and 18 nM, respectively.

B25: AB200-(2Vk31)_R2-VH-v29 (Fab, V domains shown)
VH: B1 VH with M34I, G54S, D57T, Q62E, G66S, Y105F, L108I
VL: B1 VL with S24R, H27Q, D28S, V29I, N31S, Y50A, H55Q, S56I, Y91F
B25: the Kd in experiment [3] was determined as 6.02 nM; in experiment [4], 9.34 nM.

B26: AB200-R1a-Fab_Vk25 (Fab, V domains shown)
VH: B1 VH
VL: B1 VL with H27Q, V29I, Y50A, T51A, R93K, L94I
B26: the Kd in experiment [1] amounted to 3.44 nM; in experiment [2] it was 13.6 nM.

B27: AB200-R1a-Fab_Vk34 (Fab, V domains shown)
VH: B1 VH
VL: B1 VL with V29I, Q89H, Q90E, R93K
As to B27, the values for the Kd in experiment [1] and in experiment [2] were 26.5 nM and 74.7 nM, respectively.

B28: AB200-R1a-Fab_Vk35 (Fab, V domains shown)
VH: B1 VH
VL: B1 VL with H27Q, V29L, R92K, R93K, L94I
As for B28, the Kd amounted to 7.3 nM in experiment [1] and 18.9 nM in experiment [2].

B29: AB200-(2Vk31)_R2-VH-v18 (Fab, V domains shown)
VH: B1 VH with T28S, M34I, G54S, N61A, Q62E, G66S, I101V, L108I
VL: B1 VL with S24R, H27Q, D28S, V29I, N31S, Y50A, H55Q, S56I, Y91F
In the case of B29, the Kd in experiment [3] was determined as 3.55 nM; in experiment [4], 14.9 nM.

B30: AB200-R1a-Fab_Vk12 (Fab, V domains shown)
VH: B1 VH
VL: B1 VL with H27Q, V29I, T51A, S52T
For B30, the Kd amounted to 4.89 nM in experiment [1] and 16.8 nM in experiment [2].

B31: AB200-R1a-Fab_Vk31 (Fab, V domains shown)
VH: B1 VH
VL: B1 VL with H27Q, V29I, L54I, S56I, R93K, T97S
For the molecule B31, the Kd is 2.36 nM in experiment [1] and 8.96 nM in experiment [2].

B32: AB200-(2Vk31)_R2-VH-v25 (Fab, V domains shown)
VH: B1 VH with M34I, G54S, D57T, Y59N, G66S, Y105F, L108I
VL: B1 VL with S24R, H27Q, D28S, V29I, N31S, Y50A, H55Q, S56I, Y91F
Consider B32, for which the results for the dissociation constant Kd in experiment [3] and in experiment [4] were 32.8 nM and 57.3 nM, respectively.

B33: AB200-(2Vk31)_R2-VH-v57 (Fab, V domains shown)
VH: B1 VH with M34I, A50G, G54I, D57T, G66S, K74E, I101V, L108I
VL: B1 VL with S24R, H27Q, D28S, V29I, N31S, Y50A, H55Q, S56I, Y91F
For B33, the Kd in experiment [3] was found to be 11.9 nM; in experiment [4], 20.8 nM.

B34: AB200-R1a-Fab_Vk8 (Fab, V domains shown)
VH: B1 VH
VL: B1 VL with H27Q, V29I, H55Q, Q89H, Y91S, R93K
B34: the results for the Kd in experiment [1] and in experiment [2] were 24.1 nM and 42.1 nM, respectively.

B35: AB200-R1a-Fab_Vk9 (Fab, V domains shown)
VH: B1 VH
VL: B1 VL with H27Q, D28E, V29I, Y50A, R93K, T97S
Regarding B35, the Kd came out at 2.04 nM in experiment [1] and 8.03 nM in experiment [2].

B36: AB200-(2Vk31)_R2-CDR1-hs-v3 (Fab, V domains shown)
VH: B1 VH with N31S, W33A, M34I, H35S, G54S, H55Q, F64Y, G66S, I101V, L108I
VL: B1 VL with S24R, H27Q, D28S, V29I, N31S, Y50A, H55Q, S56I, Y91F
As for B36, the figures for the Kd in experiment [3] and in experiment [4] were 319 nM and 540 nM, respectively.
